Assay results published in doi:10.1101/276204 (bioRxiv, 2018).
One block for each molecule: values may come before it.

B1: BubR1 pseudokinase domain (KinD, residues 705-1050) (domain or fragment, human, UniProt O60566 705-1050, looked up)
chain: EKLELTNETSENPTQSPWCSQYRRQLLKSLPELSASAELCIEDRPMPKLEIEKEIELGNEDYCIKREYLICEDYKLFWVAPRNSAELTVIKVSSQPVPWDFYINLKLKERLNEDFDHFCSCYQYQDGCIVWHQYINCFTLQDLLQHSEYITHEITVLIIYNLLTIVEMLHKAEIVHGDLSPRCLILRNRIHDPYDCNKNNQALKIVDFSYSVDLRVQLDVFTLSGFRTVQILEGQKILANCSSPYQVDLFGIADLAHLLLFKEHLQVFWDGSFWKLSQNISELKDGELWNKFFVRILNANDEATVSVLGELAAEMNGVFDTTFQSHLNKALWKVGKLTSPGALLFQ
B2: eGFP-CENP-E^2070-C (domain or fragment, Homo sapiens, UniProt Q02224 2070-2701, looked up)
chain: RQNHQVKPEKRLLSDGQQHLTESLREKCSRIKELLKRYSEMDDHYECLNRLSLDLEKEIEFQKELSMRVKANLSLPYLQTKHIEKLFTANQRCSMEFHRIMKKLKYVLSYVTKIKEEQHESINKFEMDFIDEVEKQKELLIKIQHLQQDCDVPSRELRDLKLNQNMDLHIEEILKDFSESEFPSIKTEFQQVLSNRKEMTQFLEEWLNTRFDIEKLKNGIQKENDRICQVNNFFNNRIIAIMNESTEFEERSATISKEWEQDLKSLKEKNEKLFKNYQTLKTSLASGAQVNPTTQDNKNPHVTSRATQLTTEKIRELENSLHEAKESAMHKESKIIKMQKELEVTNDIIAKLQAKVHESNKCLEKTKETIQVLQDKVALGAKPYKEEIEDLKMKLVKIDLEKMKNAKEFEKEISATKATVEYQKEVIRLLRENLRRSQQAQDTSVISEHTDPQPSNKPLTCGGGSGIVQNTKALILKSEHIRLEKEISKLKQQNEQLIKQKNELLSNNQHLSNEVKTWKERTLKREAHKQVTCENSPKSPKVTGTASKKKQITPSQCKERNLQDPVPKESPKSCFFDSRSKSLPSPHPVRYFDNSSLGLCPEVQNAGAESVDSQPGPWHASSGKDVPECKTQ

Columns and labels:
[1] = target: mCherry-CENP-F^2866-2990 (Homo sapiens) (UniProt P49454); experiment: AUC
[2] = target: mCherry-CENP-F^2922-2990 (Homo sapiens) (UniProt P49454); experiment: AUC
[3] = target: B2; experiment: SEC
[4] = target: BubR1:Bub3 complex (human, UniProt O60566 1-1050; O43684 1-328); experiment: SEC
Sequence of BubR1:Bub3 complex (O43684 whole entry, one chain of several): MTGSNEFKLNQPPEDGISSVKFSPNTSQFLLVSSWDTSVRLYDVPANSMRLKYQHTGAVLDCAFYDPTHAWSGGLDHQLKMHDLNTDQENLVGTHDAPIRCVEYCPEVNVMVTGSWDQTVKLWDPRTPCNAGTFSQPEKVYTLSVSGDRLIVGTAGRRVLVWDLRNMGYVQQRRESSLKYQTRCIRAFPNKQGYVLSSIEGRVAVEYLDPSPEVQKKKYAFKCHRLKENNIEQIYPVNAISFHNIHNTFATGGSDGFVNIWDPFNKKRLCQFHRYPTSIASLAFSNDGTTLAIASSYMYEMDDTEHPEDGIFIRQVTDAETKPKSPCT

stoichiometry N [1]: 2
Molecule: mCherry-CENP-F^2866-2990 (from UniProt P49454 2866-2990) (domain or fragment)

stoichiometry N [2]: 2
Molecule: mCherry-CENP-F^2922-2990 (from UniProt P49454 2922-2990) (domain or fragment)

Molecule: B1
binding result [3]: binds

Molecule: B2
binding result [4]: binds
